Laboratory results from the nanobody polyreactivity screen of Harvey et al. (2022).

Assay: yeast display, Sf9 membrane polyspecificity reagent, FACS + sequencing; frameworks hold sequencing errors
Procedure, shortened: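 Synthetic nanobody libraries on Saccharomyces cerevisiae BJ5465 were galactose-induced for 36–48 hours, stained 1 hour at 4 °C with 10% biotinylated, detergent-solubilized Sf9 membrane reagent and enriched on streptavidin microbeads. FACS then separated cells into low and high (top ~1%) gates by anti-HA (expression) and streptavidin (reagent binding) fluorescence. Genes were colony-PCR amplified, MiSeq 2 × 250 sequenced and CDR-length filtered. A clone's polyreactivity label is that of its gate of origin.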

Sequence	polyreactivity (PSR sort gate)
EEELVESGGGLVQAGGSLLLSCAAYGRILPRNDMGWYRQAPGKERELVAVISSGGSTYYPDSVKGRFTISRDNAKNTVYLQINSVKPEDTAVYYCLGGYYYLQYDYWGQGTQVTVSS	low polyreactivity
EEELVESGGGLVQAGGSLRLSCAASARISTVMLWDWYRQAPGKDRELVAAITKSGGSTYYADSVKGRFTISRDNAKNTVYLQMNSLIPEDTAVYYCAADRYAILFYAEDYWGQGTQETVSS	low polyreactivity
EEELVESGGGLVQAGGSLRLSCAASGNIFEVNTMGWYRQAPGKERELVAAITSTGSTNYADSVKGRFTISRDNAKNTVYLQMNSLKPVDTAVYYSSATLEWYRYTYEYDYWGQGTQVTVSS	low polyreactivity
EEELVESGGGLVQAGGSLRLSCAASGRTFVYNAMGWYRQAPGTERELVAAITSGDSTYYADSVKGRFTISRDNAKNTVYLQMNSLKPEDTAVYYCATDYSGIFYWYDYWGQGTQVTVSS	low polyreactivity
EEELVESGGGLVQAGGSLRLSCAASGRTLAGYPMGWYRQAPGKERELVAAISSSGGSTYYADSVKGRFTISRDNAKNTVYLQMNSLKPEDTAVYYCNRYSSYIPYPYNYWGQGTQVTVSS	high polyreactivity
EEELVESGGGLVQAGGSLRLSCAASGSIFTHYAMGWYRPAPGKERELVAAISWSGGSTYYADSVKGRFTISRDNAKKTVYLQMNSLKPEDTAVYYCAAETYWGDDYWGQGTQVTVSS	high polyreactivity
EEELVESGGGLVQAGGSLRLSCAATGSIFVVNAMRWYRQAPGKERELVAAIARGGITNYADSVKGRFTISRDNAKNTVYLQMNSLKPEDTAVYYCNARGSRWVKPDRDYWGQGTQVTVSS	low polyreactivity
EEELVESGGGLVQAGVSLRISCAASGSIFNYNAMGWYRQAPGKERELVAAISRGGTTNYADSVKGRFTISRDNANNTVYLQMNSLKPEDTAVYYCAAKAYDYYGPVYYWGQGSQVTVSS	high polyreactivity
EVQLVESGGGLFQAGGSLRLSCAASGFTFYRYAMGWYRQAPGKERELVAGITWGGGRTYYADSVKGRFTISRDNAKNTVYFQMNSLKPEATAVYYCAAYYSQDSRRKYDYWGQVTQVTVSS	high polyreactivity
EVQLVESGGGLVQAGGSLRLSCAASGSIFSFYAMGWYRQAPGKERELVAAISRSAGRTYYADSVKGRFTISRDNATNTVYLQRNSLKPEDTAVYYCNKASWYNGEMDYWGQGTQVTVSS	high polyreactivity
EVQLVESGGGLVQAGGSLRLSCAASGSIYGSYAKGWYRQAPGKERELVAGITYRGSSTYYADSVKGRFTISRDNAKYTVYLLMNSLKPEDTAVYYCAADPVFDEYDYWGQGTQVTVSS	low polyreactivity
EVQLVESGGGLVQPGGSLRLSCAASGYIYSRYRMGWYRQAPGKGREFVAAISGGSSTTYADSVKGRFTISRDNSKNTVYLQMNSLRAEDTAVYYCAAYKIDSDPRVYWGQGTQVTVSS	low polyreactivity
EVQLVESRGGLVQAGGSLRLSCAASGSILVGYAMGWYRQAPGKERELVAAISFSGGSTYYADSVKGRFTISRDNAKNTVFLQLNSLKPEDTAVYYCASKRRVWIFYSSSDDYWGQGTQVTVSS	low polyreactivity
HAQLQESGGGLVQAGGSLRRSCAASGSIFRFSRMGWYRRAPGKERELVASIGFGSITYYADRVKGRFTISRDNANNTVYLQMNSLKPEDTAVYYCAVQVQDESWLDYWGQGTQVTVSC	low polyreactivity
HAQLQESGVGLVQAGGSLRRSCAASGSIFRFSGMGWYRRAPGKERELVASIGFGSITYYADRVKGRFTISRDNANNTEYLQMNSLKPEDTAVYYCAVQVQDESWLDYWGQGTQVTVSC	low polyreactivity
HDQLVESAAGLVQAGGSLRLSCAASVLTFYQNALGWYRQAAGKEMEFVAAISRRGGSTYYADSVKGRFTISRDNAKNTVYLQMNSLKPEDTAVYYCAADYKRKSDGDYWGQGTQVTVSS	high polyreactivity
HDQLVESGGGFVQAGGSLRLSCAASGSIFRYNPMGWYRQAPGKEMELVAAISYGGGITRYADSVKGRFTISRDNAKNTVYLQMNSLKPEDTAVYYCNKAYVWRRMDYWGQGTQVTVSS	high polyreactivity
HDQLVESGGGLVEAGGSLRLSCAASGITFKGYAMGWYRPAPGKERELVAAITSGGSTKYADSVKGRFTSSRDNAKNTVYLQMNSLKPEDTAVYYCAAAVVNYGWWTYGYYGFGYWGQGTQVTVSS	high polyreactivity
HFQLVEAGGGLVQAGGSLSLSCADSGRTYSHYAMGWYSQAPAQVRELVAGISSGSRTNYADSVKGRFTISRDNAKNTVYLQMNSLKPEDTAFYYCAARTNYLKGGYWGQGTQVTVSS	high polyreactivity
HGQLVDSGGGLVQAGGSLRLICAASGYTYYDYAMGRYREAPGKEMELVADISTSDGSTFYADSVKGRFTISRDNAKNTVYLQMNSLKPEDTAVYYCNTDGSLGLYDWFWPSNNDYWGQGTQVTVSS	low polyreactivity
HLQLEESGVGLVQAGGSLRLSCAASGSTFTFNAMGWYRQAPAKSRELVAAIRWNGESTYYADSVKGRFSISRDNAKNTVYIQMNSLNPEDTAVYYCAATRLLSKSGDRYYYWGQGTQVTVSS	low polyreactivity
HVHLQESGGGLVQAGGSLRLSCAASGSINDETYMAWYRQAPGKERELVATIDSGSTTNYADSVKGRITISRDNAKNTVYLQMNSLKPEDTAVYYCAAADSHIDYFDYWGQGSQVTVSS	low polyreactivity

Sequence	polyreactivity (PSR sort gate)
HVHLVESGGGLVQAGGRLRLTCAASGRTFQKYAMGWYREAPRKERELVAAITTSGGSTYYADSVKGRFTISRDYAKYTVYLQMNSLKPEDTAVYYCNKAYAYAGHDYDWGQGTKVTVSS	high polyreactivity
HVLLVESGGGLVQAGGSLLLSCAASGSPFYTNAMVGFRKAPGKEREVVASITDGGDSTQYADSVKGRFTISRDYAKNTVYLQMNSLKPEDTAVYYCAVDYHYFQEYDTWGQGTQVTVSS	low polyreactivity
HVQLEESGGGLVQAGGSLRLTCAASGSIFYAYAMGWYIPATGKERELVAVISNGGGSTYYADSVKGRFTISRDNSKNSVYLQMNSVKPEDTAVYFCAAVLAESVYYSDYDYWGQGTQVTVSS	low polyreactivity
HVQLEESGRGLVQAGGSLRLSCAASGRTFTSNAIGWYRQAPGKERELVAVITSGGSTNYADSVKGRFTISRDNAMNTVYLQMNSLKPEDTAVYYCNARSGRGQAYGYWGQGTQVTVSS	high polyreactivity
HVQLQESAGGLVQAGASLRLSCAPSGNISYSRNMGWYRQAPGKERELVAAIDRGAITYYADSVKGRFTISRDNEKNTVYLQIFSLKPEDTAVYYCAAVYHDRWDHRYWGQGTQVTVSS	high polyreactivity
HVQLQESGGGLVQAGGSLRLICAASGNIVDDDIMGWYRQAPGKEREIVASITDGGSTNYADSLKGRFTISRDNAKNTVYQQMNILIREVTAVYYCAAIAYPDIPTYFVYDSDSFYWGQGTQETVSS	high polyreactivity
HVQLQESGGGLVQAGGSLRLSCAASGNISYSRNMGWYRQAPGKERELVAAIDRGAITYYADSVKGRFTISRDNAKNTVYLQIYSLKPEDTAVYYCAAEYHDRWDHRYWGQGTQVTVSS	high polyreactivity
HVQLQESGGGLVQAGGSMRLSCAESGSISELRPMGLYRKAPGKERELVAGISTGGSTNYADSVKGRFTISLDNAKNTVYLQMNSLKPEYTAVYFCAAASYCEGTYDYWGQGTQVTVRS	high polyreactivity
HVQLQESGGGLVQPGGSLRLSCAASGNISFSRNMGWYRQAPGKERELVAAIDRGAITYYGDSVKGRFTISRDNAKNTVYLQIYSLKPEDTAVYYCAAEYHDGWDHRYWGQGTQVTVSS	high polyreactivity
HVQLVESGGGFVQAGGSLRLICAASVRNFDVYSMGWYRQAPGKERELVAAISRRGGSTYYADSVKGRFTISRDNAKNTVYLQMNRLKPEDTAVYYCAAQSRQAYMTYGYWGLGTQVTVSS	high polyreactivity
HVQLVESGGGIVQAGGILRLSCAASGRIFSVYTMGWYRKAPGQERELVAAISSGASTNYADSVKGRFTISRDNAKNTVYLQMNSLKPEDTAVYYCAKEYGIYTDTPYYYWGQGTQVTVSS	low polyreactivity
HVQLVESGGGLFQAGGSLRLCCAASGSISGLYAMGWYRQAPGKERELVAAITLRDGTTSYADSVKGRFTISRDNAKITVYLQMNSLKPEDTDVYYCAAVDRDSKCSVPTLDHWGQGTQVTVSS	low polyreactivity
HVQLVESGGGLGQAGGSLRLSCAASGSIFYVNAIGWYRQAPGKERELVADITWSGGSTYYADSVKGRFTISRDHAQTTVYLQMNSLKPEDTAVYYCAAKVKHWYYPYYYWGQGTQVTVSS	low polyreactivity
HVQLVESGGGLVQAGGILRLSFAASGFIFCYYTMGWYRQATGKERELVAAINSGGSTNYADSVKGRFTISRDNAKNTVYLQMNSLKPEDTAVYYCAALVWYSGELFYYWGQGTQVTVSS	low polyreactivity
HVQLVESGGGLVQAGGRLRLSCAASGGTFWHYAMGWYRKAPGKERELFAAIRWRGVRTYYADSVKGRFTISRDNAKNTVYLQMNSLKPEDTAVYYCASTTWRSGRYNYWGQGTQVTVSS	high polyreactivity
HVQLVESGGGLVQAGGSLRISCAASGRTLEQYAMGWYRQAPGKERELVAAINKSGARTYYADSVKGRFTISRDNAKNTVYLQMNSLKPEDTAVYYCNTVGPCYLFDYWGQGTQVTVSS	high polyreactivity
HVQLVESGGGLVQAGGSLRLSCAASARIFVTYAMGWYREAPGKETELVAAISSRGGRTNYADSVKGRFTISRDNAQNTVYLQMNSLKPEYTAVYYFAARYWYIYNYDYWGQGTQVTVSS	high polyreactivity
HVQLVESGGGLVQAGGSLRLSCAASGFTFPLYALGWYRPAPGKEREVVAAIRSSGGSTYYADSVKGRFTISRDKAKNTVNLQMNSLKPEDTAVSYCAKVRSTRRLDTYYYWGQGTQVTVSS	high polyreactivity
HVQLVESGGGLVQAGGSLRLSCAASGFTFYVYAMGWYRQAPGTERELVAAISRGGSTYYADSVKGRFTISRDNAKNTVYLQMNSLKPEDTAVYYCNRVPSVSSSKVRYSNGFDYWGQGTQVTVSS	low polyreactivity
HVQLVESGGGLVQAGGSLRLSCAASGGTFGRYARGWYRQAPGKERELVAAISSGGSTNYADSVKGRFTISRDNAKYTVYLLMNSLKPEDTAVYYCAADGPSGVRQYDYWGQGTQVTVSS	low polyreactivity
HVQLVESGGGLVQAGGSLRLSCAASGIIFRYKALGWYREAPGKERELVAAISVSGGSTYYADSVKGRFTISRDNAKNTVDLQMNSLKPEDTAVDYCAALLYRYGVHQAEHDYWGQGTQVTVSS	high polyreactivity
